In patent publication US20110262366A1:
One block for each substance: values may come before it.

Assays:
[1] = biological target: endothelial cell receptor on HAEC (human aortic endothelial cells); assay: competition, 100 ng/ml VEGF121 against 2% BRU-114 microbubbles (competitor) on HAEC, static
[2] = biological target: endothelial cell receptor on HAEC (human aortic endothelial cells); assay: competition, 200 ng/ml VEGF121 against 2% BRU-114 microbubbles (competitor) on HAEC, static
[3] = biological target: endothelial cell receptor on HAEC (human aortic endothelial cells); assay: competition, 400 ng/ml VEGF121 against 2% BRU-114 microbubbles (competitor) on HAEC, static
[4] = biological target: endothelial cell receptor on HAEC (human aortic endothelial cells); assay: conjugated fluorescent beads on confluent HAEC, static 30 min, image analysis (Example 2, experiment 1)
[5] = biological target: endothelial cell receptor on HAEC (human aortic endothelial cells); assay: competition, 100 ng/ml VEGF165 against 2% BRU-114 microbubbles (competitor) on HAEC, static
[6] = biological target: endothelial cell receptor on HAEC (human aortic endothelial cells); assay: competition, 25 ng/ml VEGF165 against 2% BRU-114 microbubbles (competitor) on HAEC, static
[7] = biological target: endothelial cell receptor on HAEC (human aortic endothelial cells); assay: competition, 200 ng/ml VEGF165 against 2% BRU-114 microbubbles (competitor) on HAEC, static
[8] = biological target: endothelial cell receptor on HAEC (human aortic endothelial cells); assay: competition, VEGF165 against 5% DPPE-GTKPPR microbubbles (competitor) on HAEC, static
[9] = biological target: endothelial cell receptor on HAEC (human aortic endothelial cells); assay: competition, 25 ng/ml VEGF165 against 5% DPPE-GTKPPR microbubbles (competitor) on HAEC, static
[10] = biological target: endothelial cell receptor on HAEC (human aortic endothelial cells); assay: competition, 75 ng/ml VEGF165 against 5% DPPE-GTKPPR microbubbles (competitor) on HAEC, static
[11] = biological target: endothelial cell receptor on HAEC (human aortic endothelial cells); assay: competition, 50 ng/ml VEGF165 against 5% DPPE-GTKPPR microbubbles (competitor) on HAEC, static
[12] = biological target: endothelial cell receptor on HAEC (human aortic endothelial cells); assay: competition, 6.25 ng/ml VEGF165 against 5% DPPE-GTKPPR microbubbles (competitor) on HAEC, static
[13] = biological target: NP-1/Fc (Neuropilin-1/Fc, R&D Systems); assay: fluorescence polarization, competition against OG-labeled BRU-326 (competitor) on NP-1/Fc
Sequence of NP-1/Fc (Neuropilin-1/Fc, R&D Systems) (Q9QWJ9 22-855): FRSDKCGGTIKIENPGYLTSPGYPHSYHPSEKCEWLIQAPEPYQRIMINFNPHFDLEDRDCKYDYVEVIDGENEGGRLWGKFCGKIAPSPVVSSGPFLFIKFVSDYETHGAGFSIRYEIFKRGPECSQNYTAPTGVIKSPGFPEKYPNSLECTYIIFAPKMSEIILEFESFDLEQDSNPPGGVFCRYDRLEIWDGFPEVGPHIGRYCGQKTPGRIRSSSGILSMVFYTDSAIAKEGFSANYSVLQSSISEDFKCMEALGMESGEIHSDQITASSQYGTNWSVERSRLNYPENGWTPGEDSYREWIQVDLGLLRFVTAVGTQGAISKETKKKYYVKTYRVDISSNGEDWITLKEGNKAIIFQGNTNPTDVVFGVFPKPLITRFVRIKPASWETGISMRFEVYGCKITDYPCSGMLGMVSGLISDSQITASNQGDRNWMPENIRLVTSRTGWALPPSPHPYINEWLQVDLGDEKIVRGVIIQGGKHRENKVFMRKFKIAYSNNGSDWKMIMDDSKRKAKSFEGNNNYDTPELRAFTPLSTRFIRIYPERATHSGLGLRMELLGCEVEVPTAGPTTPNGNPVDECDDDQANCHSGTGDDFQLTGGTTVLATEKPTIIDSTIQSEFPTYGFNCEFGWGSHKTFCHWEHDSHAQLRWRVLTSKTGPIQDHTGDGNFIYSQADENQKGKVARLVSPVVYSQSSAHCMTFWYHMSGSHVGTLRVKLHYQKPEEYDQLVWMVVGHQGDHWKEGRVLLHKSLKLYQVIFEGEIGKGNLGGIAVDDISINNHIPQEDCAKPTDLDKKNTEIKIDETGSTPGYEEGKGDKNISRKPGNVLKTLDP

[14] = biological target: endothelial cell receptor on HAEC (human aortic endothelial cells); assay: competition, 12.5 ng/ml VEGF165 against 5% DPPE-GTKPPR microbubbles (competitor) on HAEC, static
[15] = biological target: endothelial cell receptor on HAEC (human aortic endothelial cells); assay: competition, 2500 ng/ml KDR/Fc against 5% DPPE-GTKPPR microbubbles (competitor) on HAEC, static
[16] = biological target: endothelial cell receptor on HAEC (human aortic endothelial cells); assay: competition, 1000 ng/ml KDR/Fc against 5% DPPE-GTKPPR microbubbles (competitor) on HAEC, static
[17] = biological target: endothelial cell receptor on HAEC (human aortic endothelial cells); assay: competition, 125 ng/ml KDR/Fc against 5% DPPE-GTKPPR microbubbles (competitor) on HAEC, static
[18] = biological target: endothelial cell receptor on HAEC (human aortic endothelial cells); assay: competition, 250 ng/ml KDR/Fc against 5% DPPE-GTKPPR microbubbles (competitor) on HAEC, static
[19] = biological target: endothelial cell receptor on HAEC (human aortic endothelial cells); assay: competition, 500 ng/ml KDR/Fc against 5% DPPE-GTKPPR microbubbles (competitor) on HAEC, static

Sequence of soluble human KDR/Fc chimera (R&D Systems Inc.) (P35968 20-764, change not shown): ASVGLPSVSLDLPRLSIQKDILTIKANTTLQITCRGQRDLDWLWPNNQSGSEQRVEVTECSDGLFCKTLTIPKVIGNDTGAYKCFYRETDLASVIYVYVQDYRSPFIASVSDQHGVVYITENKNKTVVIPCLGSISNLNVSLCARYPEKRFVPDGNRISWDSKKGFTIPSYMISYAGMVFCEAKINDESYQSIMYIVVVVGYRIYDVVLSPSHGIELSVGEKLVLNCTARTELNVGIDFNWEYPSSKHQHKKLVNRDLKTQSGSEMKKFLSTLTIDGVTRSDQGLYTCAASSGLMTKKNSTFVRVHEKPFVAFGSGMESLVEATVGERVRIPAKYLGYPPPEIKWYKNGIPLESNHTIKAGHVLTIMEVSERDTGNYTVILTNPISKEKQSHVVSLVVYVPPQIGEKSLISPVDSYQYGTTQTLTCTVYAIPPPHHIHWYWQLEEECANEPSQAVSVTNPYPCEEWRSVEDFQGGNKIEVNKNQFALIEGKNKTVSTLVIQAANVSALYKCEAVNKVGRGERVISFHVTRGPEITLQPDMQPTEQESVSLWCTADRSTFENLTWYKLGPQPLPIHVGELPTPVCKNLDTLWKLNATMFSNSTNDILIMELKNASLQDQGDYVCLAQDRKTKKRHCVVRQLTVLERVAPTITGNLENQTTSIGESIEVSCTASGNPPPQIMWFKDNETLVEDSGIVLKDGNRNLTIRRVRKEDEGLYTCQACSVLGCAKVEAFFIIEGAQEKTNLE

- Bubbles Bound in presence of competitor [1]: 878 bubbles
- Bubbles Bound in presence of competitor [2]: 849 bubbles
- Bubbles Bound in presence of competitor [3]: 778 bubbles
Substance: VEGF121 (from UniProt P15692 27-147) (ligand)

- Integrated density of bound beads (arbitrary units) [4]: 1.61
Substance: BSA-conjugated fluorescent beads (from UniProt P02769 25-607)

- Bubbles Bound in presence of competitor [5]: 94 bubbles
- Bubbles Bound in presence of competitor [6]: 144 bubbles
- Bubbles Bound in presence of competitor [7]: 70 bubbles
- IC50 [8]: 0.0125 µg/mL
- Bubbles Bound in presence of competitor [9]: 342 bubbles
- Bubbles Bound in presence of competitor [10]: 190 bubbles
- Bubbles Bound in presence of competitor [11]: 226 bubbles
- Bubbles Bound in presence of competitor [12]: 1180 bubbles
- IC50 [13]: 200 nM
- Bubbles Bound in presence of competitor [14]: 599 bubbles
Substance: VEGF165 (from UniProt P15692 27-191) (ligand)

- Bubbles Bound in presence of competitor [15]: 84 bubbles
- Bubbles Bound in presence of competitor [16]: 75 bubbles
- Bubbles Bound in presence of competitor [17]: 1030 bubbles
- Bubbles Bound in presence of competitor [18]: 786 bubbles
- Bubbles Bound in presence of competitor [19]: 342 bubbles
Substance: soluble human KDR/Fc chimera (R&D Systems Inc.) (from UniProt P35968 20-764) (Fc fusion)
